Measured values from the supplement of paper PMC12042874.
± gives the uncertainty stated by the source.

Test: amyloid nucleation score (Sup35N fusion, yeast selection) (log enrichment); library NNK2; higher = more nucleation; inactive = no reads after selection
Summary of the method: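 After 24 hours of induction with 100 μM copper sulfate, psi-negative yeast expressing peptides of 20 random codons fused to Sup35N were grown for 7 days at 30°C on medium lacking adenine and uracil. Input and output plasmid inserts were sequenced with Illumina, and sequences with under 100 input reads were discarded. Scores for nucleation are the DiMSum log enrichment of output over input reads, centred on the mode score of non-aggregating sequences.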
YQYRDLLVIVRSTMKSNVSV showed an amyloid nucleation score of 1.85 ± 0.1. YRAMESNRKRTPVKPVRCVV showed an amyloid nucleation score of 2.85 ± 0.11. For YRASHCQSFQ, the amyloid nucleation score was -1.2 ± 1.1. With YRCIMVATMWGPRVELGR the amyloid nucleation score was 0.522 ± 0.39. YRFHSTKRCINSGDNC gave an amyloid nucleation score of -0.14 ± 1. Substance YRFMTLVQHSYRCICLRLNA has an amyloid nucleation score of -0.183 ± 0.33. YRHYIGRTSFTLY showed an amyloid nucleation score of -0.232 ± 1.1. YRLGLCGTFHINCVLINRDG showed an amyloid nucleation score of 5.2 ± 0.056. Work on YRLIYFVVLFEFLSVNR yielded an amyloid nucleation score of -0.089 ± 0.79. In the case of YRLPRLRMLTLFLCFTNVGK, the amyloid nucleation score is reported as 1.37 ± 0.2. YRPMEGRLKWSMTVLIVSLY gave an amyloid nucleation score of 0.497 ± 0.46. For YRSFSLCMCFYLYRSDDTLC, the amyloid nucleation score was -1.69 ± 1.1. Work on YRSVVDA yielded an amyloid nucleation score of 0.077 ± 0.54. Work on YRVVM yielded an amyloid nucleation score of 1.22 ± 0.69. Work on YSARRSGNFPVVRLMMNDLT yielded an amyloid nucleation score of -0.153 ± 0.65. Work on YSCRIDF yielded an amyloid nucleation score of 0.8 ± 0.54. With YSDISQTRSASAIALGECRG the amyloid nucleation score was -0.879 ± 0.64. Work on YSDSSSREMEQSGL yielded an amyloid nucleation score of -0.199 ± 0.63. Substance YSELIVTVIYKSTSSVRISC has an amyloid nucleation score of -0.285 ± 0.33. Substance YSFSRTYVLIIDGVS has an amyloid nucleation score of 1.27 ± 0.18. For YSGDNVNVVKQRPSCFLISR, the amyloid nucleation score was -0.24 ± 0.74. In the case of YSGFIMWYLFDDTAQIP, the amyloid nucleation score is reported as -0.781 ± 1.1. For YSGVSTTSFISDKPYRSRRR, the amyloid nucleation score was -1.95 ± 1. Substance YSIVNTNAGMTTRAWVTPTW has an amyloid nucleation score of 1.38 ± 0.21. For YSKTFTRRSWAHYTCHSVRL, the amyloid nucleation score was 0.12 ± 0.41. YSLLILAPDFLNRHSSLGCI gave an amyloid nucleation score of -0.226 ± 1.1. In the case of YSMLQF, the amyloid nucleation score is reported as “inactive”. In the case of YSQFITGFGNNRHLTLSLAG, the amyloid nucleation score is reported as 0.389 ± 0.5. With YSRGGKMVAARGCGSAEPDA the amyloid nucleation score was -0.64 ± 0.76. With YSRKYSSAKVSMGDVCHNYM the amyloid nucleation score was -1.19 ± 0.76. YSSDYILSFNVNNTMVVSFE gave an amyloid nucleation score of 5.59 ± 0.078. Substance YSSKFSYGMMCTRWDIVQYK has an amyloid nucleation score of -0.451 ± 0.76. For YSVQRCGYQDSKNNDVFLA, the amyloid nucleation score was -0.043 ± 0.5. In the case of YTDIHESL, the amyloid nucleation score is reported as “inactive”. With YTFWNVLC the amyloid nucleation score was 3.59 ± 0.084. With YTGRSDVNSVLRV the amyloid nucleation score was 0.183 ± 1. For YTGYGTWNLNIRNACNRVSW, the amyloid nucleation score was “inactive”. In the case of YTKFANSHFIGLNRSCWSNE, the amyloid nucleation score is reported as -0.238 ± 0.8. YTLCTMKLREWNRTSTWPSL gave an amyloid nucleation score of -0.003 ± 0.39. Work on YTSSCILGRTFPVLKCNIDY yielded an amyloid nucleation score of -1.33 ± 0.76. Substance YTSWDMYIEFIMSLQMYSVG has an amyloid nucleation score of -0.729 ± 1.1. YTWSSYD showed an amyloid nucleation score of -1.14 ± 0.36. YTWVYPF gave an amyloid nucleation score of -1.01 ± 0.33. YVAVYSCLSRGCTLS showed an amyloid nucleation score of 9.186 ± 0.077. Work on YVDAEARLFCGLLGLVFGDL yielded an amyloid nucleation score of 5.47 ± 0.097. Work on YVGSTLAFNNKIGGDYNMKS yielded an amyloid nucleation score of -0.54 ± 1.1. In the case of YVIVVGWPR, the amyloid nucleation score is reported as 9.408 ± 0.073. YVLKIGSY showed an amyloid nucleation score of -0.617 ± 0.44. Work on YVLSCDPLVRYQGLEDRQQS yielded an amyloid nucleation score of 0.31 ± 0.62. Substance YVMFRC has an amyloid nucleation score of 1.31 ± 0.32. YVMNRCNR gave an amyloid nucleation score of -0.019 ± 0.54. For YVMREDLGPGSQADPTSGRS, the amyloid nucleation score was 0.912 ± 0.27. Substance YVMSVRSAIRPIGSCVKKEY has an amyloid nucleation score of 0.101 ± 0.76. Work on YVNRVSCKVASRNCHHNGKS yielded an amyloid nucleation score of -0.235 ± 1.1. For YVPDVLTMYYGHTFTFDCGR, the amyloid nucleation score was “inactive”. Work on YVPYLLTLCCRCSSLGFR yielded an amyloid nucleation score of -1.08 ± 1.1. YVRFEVLRWLLYRYTMVSQD showed an amyloid nucleation score of 0.661 ± 0.49. With YVSSNWRNFRSVSQWWMLHV the amyloid nucleation score was 1.57 ± 0.1. Substance YVTELIDCPGWTRRM has an amyloid nucleation score of -0.006 ± 0.38. YVTPSNLARNKIQRFMASLI gave an amyloid nucleation score of 0.436 ± 0.8. YVVKIREIMVCSLVLDLRQR gave an amyloid nucleation score of 2.57 ± 0.069. Substance YVVTYLRRRTLLAGSCISNY has an amyloid nucleation score of 0.164 ± 0.8. With YVYKCLQSQFFNALVTMISL the amyloid nucleation score was “inactive”. YWCLA gave an amyloid nucleation score of -0.737 ± 0.45. With YWELQSHMGRFNSSCHLRWV the amyloid nucleation score was -1.7 ± 0.76. For YWFHDCMRCCGNKILLLPDI, the amyloid nucleation score was -0.712 ± 1.1. With YWGNYLRSFIYVVTSWSHVF the amyloid nucleation score was “inactive”. For YWLPRCKLVFV, the amyloid nucleation score was 0.017 ± 0.25. For YWNEP, the amyloid nucleation score was 0.15 ± 0.37. Work on YWQYCVDANFKQLMQRGKVF yielded an amyloid nucleation score of 0.728 ± 0.62. With YWVSCHVALGMALKSVLVPC the amyloid nucleation score was 0.009 ± 0.76. Work on YWWGLENFTYCEDDAVSHKS yielded an amyloid nucleation score of 0.294 ± 0.8. In the case of YYCRCYSGVLVTRAYQGNPE, the amyloid nucleation score is reported as -0.168 ± 1.1. In the case of YYEYQVIYSVCSMRI, the amyloid nucleation score is reported as -0.31 ± 1. In the case of YYGILEVG, the amyloid nucleation score is reported as “inactive”. With YYGVKSAM the amyloid nucleation score was 0.074 ± 0.49. YYISKKSMMMDEVRCWMTWF gave an amyloid nucleation score of -0.524 ± 0.27. Substance YYLSNSWVLYFCFGIFVTSQ has an amyloid nucleation score of 1.88 ± 0.094. YYNKNLFCLFSVLEYKTTFL showed an amyloid nucleation score of 4.09 ± 0.056. For YYQGRPWSSVLSFYCFHSYS, the amyloid nucleation score was “inactive”. YYRIWYRVLIPSP showed an amyloid nucleation score of -0.43 ± 0.29. In the case of YYSAHAKSAGLM, the amyloid nucleation score is reported as 1.2 ± 0.48. With YYTWDFWDIFRGWYRRDGIC the amyloid nucleation score was “inactive”. With YYYDYVCLLWDLEEVSRHAL the amyloid nucleation score was -0.442 ± 1.
